Test results as given in patent US20020164609A1 (SCHERING, published 2002).

T1: Flag-tagged mouse WSX-1 on BaF3 cells (F-mWSX-1) (mouse, UniProt O70394 25-623)
T1 construct: whole, on cells; Retroviral pMX construct expressed on the surface of Ba/F3 cells
T1 sequence (looked up): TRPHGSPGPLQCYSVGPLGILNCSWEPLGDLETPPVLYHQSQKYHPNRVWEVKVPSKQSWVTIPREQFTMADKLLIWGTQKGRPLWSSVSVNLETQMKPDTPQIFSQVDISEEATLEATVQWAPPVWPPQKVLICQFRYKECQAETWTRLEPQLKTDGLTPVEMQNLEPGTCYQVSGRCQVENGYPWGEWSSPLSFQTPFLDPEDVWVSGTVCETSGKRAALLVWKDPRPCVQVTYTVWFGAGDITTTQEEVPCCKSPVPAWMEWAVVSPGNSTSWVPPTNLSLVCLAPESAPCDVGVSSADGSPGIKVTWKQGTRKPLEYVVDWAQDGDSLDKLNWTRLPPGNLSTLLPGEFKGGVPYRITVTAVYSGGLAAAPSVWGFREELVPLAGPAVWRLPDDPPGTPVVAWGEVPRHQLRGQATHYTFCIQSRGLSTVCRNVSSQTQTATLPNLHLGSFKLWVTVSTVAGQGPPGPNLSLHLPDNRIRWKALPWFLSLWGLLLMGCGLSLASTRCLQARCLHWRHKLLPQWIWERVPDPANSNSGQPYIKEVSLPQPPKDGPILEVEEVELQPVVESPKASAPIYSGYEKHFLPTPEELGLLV

T2: Flag-tagged human WSX-1/TCCR on Ba/F3 cells (F-hWSX-1) (human, UniProt Q6UWB1 33-636)
T2 construct: Retroviral pMX construct expressed on the surface of Ba/F3 cells; also called hNR30; F-tagged WSX-1/TCCR
T2 sequence: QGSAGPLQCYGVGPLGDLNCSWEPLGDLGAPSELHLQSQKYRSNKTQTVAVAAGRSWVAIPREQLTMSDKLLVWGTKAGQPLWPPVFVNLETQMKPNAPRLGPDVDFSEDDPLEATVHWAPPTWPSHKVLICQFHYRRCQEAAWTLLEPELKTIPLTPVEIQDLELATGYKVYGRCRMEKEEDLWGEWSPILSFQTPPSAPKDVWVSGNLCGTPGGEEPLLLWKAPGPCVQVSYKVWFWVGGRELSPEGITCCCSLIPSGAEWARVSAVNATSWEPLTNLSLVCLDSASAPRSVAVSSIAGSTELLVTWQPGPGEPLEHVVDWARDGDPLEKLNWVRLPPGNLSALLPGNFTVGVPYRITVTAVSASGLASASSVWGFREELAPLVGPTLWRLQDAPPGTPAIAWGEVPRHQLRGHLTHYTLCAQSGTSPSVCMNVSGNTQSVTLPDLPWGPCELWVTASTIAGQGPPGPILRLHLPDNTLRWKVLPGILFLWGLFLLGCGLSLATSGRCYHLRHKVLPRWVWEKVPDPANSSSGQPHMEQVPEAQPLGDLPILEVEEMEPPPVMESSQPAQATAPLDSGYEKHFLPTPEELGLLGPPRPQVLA

T3: soluble human WSX-1/TCCR with C-terminal RGSH6 tag (shWSX-1-R) (human, UniProt Q6UWB1 33-516)
T3 construct: Produced in HEK293T supernatants; also called shNR30R; soluble hWSX-1-R
T3 sequence: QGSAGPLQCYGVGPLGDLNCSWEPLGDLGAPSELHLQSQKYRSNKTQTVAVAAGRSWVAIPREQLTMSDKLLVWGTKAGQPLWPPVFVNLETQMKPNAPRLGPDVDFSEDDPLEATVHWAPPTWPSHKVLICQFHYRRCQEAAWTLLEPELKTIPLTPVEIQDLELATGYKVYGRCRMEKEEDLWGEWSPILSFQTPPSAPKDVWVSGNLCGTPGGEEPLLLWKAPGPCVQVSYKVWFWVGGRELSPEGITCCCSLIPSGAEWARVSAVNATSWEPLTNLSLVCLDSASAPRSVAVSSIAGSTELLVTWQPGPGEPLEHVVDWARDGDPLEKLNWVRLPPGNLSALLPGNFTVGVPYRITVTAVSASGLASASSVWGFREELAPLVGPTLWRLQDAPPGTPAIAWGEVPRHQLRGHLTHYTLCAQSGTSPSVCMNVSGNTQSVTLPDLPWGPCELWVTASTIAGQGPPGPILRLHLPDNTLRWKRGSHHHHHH


Assays:
[1] = target: T1, Flag-tagged mouse WSX-1 on BaF3 cells …; assay: flow cytometry on mWSX-1-expressing BaF3 cells
[2] = target: T2, Flag-tagged human WSX-1/TCCR on Ba/F3 …; assay: flow cytometry on BaF3 cells expressing F-hWSX-1, two hours incubation
[3] = target: T3, soluble human WSX-1/TCCR with …; assay: co-immunoprecipitation and western blot; F-hEBI3 alone against shWSX-1-R supernatant
Method: The primary pricipitates were washed and then incubated with HEK293T cell supernatants containing shWSX-1-R. Secondary precipitates were separated by SDS-PAGE and subjected to western blot. Precipitaited proteins were visualized by ECL using antibodies against the respective protein tags.

| Binder | binding result [1] | further results |
| --- | --- | --- |
| E-tagged mouse IL-D80 (mIL-D80-E) (ligand, also called mp28-E; mouse p28; not shown: E-tag from the pCDM8-etag vector) FPTDPLSLQELRREFTVSLYLARKLLSEVQGYVHSFAESRLPGVNLDLLPLGYHLPNVSLTFQAWHHLSDSERLCFLATTLRPFPAMLGGLGTQGTWTSSEREQLWAMRLDLRDLHRHLRFQVLAAGFKCSKEEEDKEEEEEEEEEEKKLPLGALGGPNQVSSQVSWPQLLYTYQLLHSLELVLSRAVRDLLLLSLPRRPGSAWDS | no binding |  |
| mouse EBI3-Ig fusion (mEBI3-Ig) (Fc fusion, UniProt O35228 19-228, looked up, mature; Secreted fusion protein; not shown: Ig part from the pME18S-Ig vector) YTETALVALSQPRVQCHASRYPVAVDCSWTPLQAPNSTRSTSFIATYRLGVATQQQSQPCLQRSPQASRCTIPDVHLFSTVPYMLNVTAVHPGGASSSLLAFVAERIIKPDPPEGVRLRTAGQRLQVLWHPPASWPFPDIFSLKYRLRYRRRGASHFRQVGPIEATTFTLRNSKPHAKYCIQVSAQDLTDYGKPSDWSLPGQVESAPHKP | no binding |  |
| human EBI3-Ig fusion (hEBI3-Ig) (Fc fusion, Secreted fusion protein; also called EB133-Ig (so in the source); not shown: Ig part from the pME18S-Ig vector) RKGPPAALTLPRVQCRASRYPIAVDCSWTLPPAPNSTSPVSFIATYRLGMAARGHSWPCLQQTPTSTSCTITDVQLFSMAPYVLNVTAVHPWGSSSSFVPFITEHIIKPDPPEGVRLSPLAERHVQVQWEPPGSWPFPEIFSLKYWIRYKRQGAARFHRVGPIEATSFILRAVRPRARYYVQVAAQDLTDYGELSDWSLPATATMSLGK |  | binding result [2]: no binding |
| Flag-tagged human EBI3 (F-hEBI3) (other, Mature portion of human EBI3 cloned into pFlagCMV-1, produced in HEK293T cells; also called human Epstein-Barr virus-induced gene 3; not shown: N-terminal Flag tag from pFlagCMV-1) RKGPPAALTLPRVQCRASRYPIAVDCSWTLPPAPNSTSPVSFIATYRLGMAARGHSWPCLQQTPTSTSCTITDVQLFSMAPYVLNVTAVHPWGSSSSFVPFITEHIIKPDPPEGVRLSPLAERHVQVQWEPPGSWPFPEIFSLKYWIRYKRQGAARFHRVGPIEATSFILRAVRPRARYYVQVAAQDLTDYGELSDWSLPATATMSLGK |  | binding result [3]: no binding |
